According to paper PMC11479942, “XPD stalled on cross-linked DNA provides insight into damage verification”:

T1: XPD wild type (ctXPD) (Chaetomium thermophilum (paper: C. …, UniProt G0RZH0 1-780))
T1 sequence: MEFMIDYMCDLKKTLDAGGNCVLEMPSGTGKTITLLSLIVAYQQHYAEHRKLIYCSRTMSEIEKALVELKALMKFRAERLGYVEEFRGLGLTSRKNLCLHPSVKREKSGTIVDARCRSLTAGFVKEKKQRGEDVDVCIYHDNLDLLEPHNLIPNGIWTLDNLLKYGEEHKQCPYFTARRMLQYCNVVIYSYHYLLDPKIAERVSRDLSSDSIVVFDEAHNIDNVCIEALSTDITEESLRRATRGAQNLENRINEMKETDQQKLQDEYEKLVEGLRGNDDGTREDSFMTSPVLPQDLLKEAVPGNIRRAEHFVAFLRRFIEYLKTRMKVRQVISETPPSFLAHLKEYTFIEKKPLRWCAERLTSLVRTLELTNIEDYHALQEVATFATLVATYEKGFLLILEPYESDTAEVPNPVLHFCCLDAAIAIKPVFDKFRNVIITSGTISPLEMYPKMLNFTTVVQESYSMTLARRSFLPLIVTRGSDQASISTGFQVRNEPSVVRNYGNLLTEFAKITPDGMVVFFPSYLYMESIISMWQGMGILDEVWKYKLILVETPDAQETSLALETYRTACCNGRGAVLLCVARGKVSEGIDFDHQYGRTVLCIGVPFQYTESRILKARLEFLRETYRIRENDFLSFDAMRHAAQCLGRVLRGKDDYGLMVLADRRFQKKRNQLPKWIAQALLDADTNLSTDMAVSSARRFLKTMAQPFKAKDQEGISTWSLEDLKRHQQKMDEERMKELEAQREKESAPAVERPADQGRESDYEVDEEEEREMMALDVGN


How the values were obtained:
[1] = target: super-unplugged XPD variant (Chaetomium thermophilum)
[2] = target: T1, XPD wild type (ctXPD); experiment: fluorescence anisotropy; 5 mM MgCl2, no nucleotide; Fluorescence anisotropy: 20 mM HEPES pH 7.5, 50 mM KCl, 5 mM MgCl2, 1 mM TCEP, 5 nM DNA, room temperature; cryo-EM: same buffer, 10 uM complex, DNA 1.25:1, 5 mM ATP; conditions: protein: recombinant; tags: N-terminal 6xHis, TEV site (pBADM-11); label: 5' Cy3; hairpin with 5' overhang

Molecule | XPD helicase activity (fluorescence-based, Y-forked DNA 250 nM, XPD–p44 250 nM) with equimolar XPG D924A (250 nM); inhibition by XPG D924A [1] [fold] | Kd [2] [nM]
XPG D924A from Chaetomium thermophilum (enzyme) | 6 | –
TTTTTTTTTTTTTTTCCCGGCCATGCGAAGCATGGCCGTT (structured_DNA) [5' overhang self-annealing hairpin] | – | 30
